In article PMC6081480, “Monitoring the action of redox-directed cancer therapeutics using a human peroxiredoxin-2-based probe” (Nature Communications, 2018):
Blank lines part the entries; values can stand above or below the molecule they belong to.

How the values were obtained:
[1] = target: human Prx2-based FRET probe (Clover-Prx2-mRuby2) (human); experiment: non-reducing SDS-PAGE with immunoblot; HeLa cells with or without the probe, treated with H2O2 (also auranofin or piperlongumine); free thiols blocked with 100 mM MMTS; 1% Triton X-100 lysate; SDS-PAGE without beta-mercaptoethanol; blot for Prx2 or GFP; disulfide-linked dimers
[2] = target: the molecule itself; experiment: as above

stoichiometry N [1]: 2
Molecule: human Prx2-based FRET probe (Clover-Prx2-mRuby2)

B1: human peroxiredoxin-2 (endogenous) (natural protein, human (endogenous in HeLa), UniProt P32119 1-198, looked up)
chain: MASGNARIGKPAPDFKATAVVDGAFKEVKLSDYKGKYVVLFFYPLDFTFVCPTEIIAFSNRAEDFRKLGCEVLGVSVDSQFTHLAWINTPRKEGGLGPLNIPLLADVTRRLSEDYGVLKTDEGIAYRGLFIIDGKGVLRQITVNDLPVGRSVDEALRLVQAFQYTDEHGEVCPAGWKPGSDTIKPNVDDSKEYFSKHN
notes: peroxiredoxin-2 (Prx2), human, endogenous in HeLa cells; monomer band at 21 kDa; the dimer seen on non-reducing SDS-PAGE is linked by a disulfide between the catalytic and the resolving cysteine of two monomers; also called Prx2; endogenous Prx2; source: endogenous, HeLa lysate
stoichiometry N [2]: 2
